Experimental data as given in the nanobody polyreactivity screen of Harvey et al. (2022).

Test: yeast display, Sf9 membrane polyspecificity reagent, FACS + sequencing; frameworks hold sequencing errors
Method in brief: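 A nanobody's polyreactivity label depends on the gate it was sorted from. Yeast display cells were stained with 10% biotinylated, detergent-solubilized Sf9 membrane reagent for 1 hour at 4 °C, enriched on streptavidin microbeads and sorted by FACS. The low and high (top ~1%) gates were set on anti-HA fluorescence for expression and streptavidin fluorescence for reagent binding.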

Sequence	polyreactivity (PSR sort gate)
QVQLVESGGGLVQAGGSLRLSCAASGRTFRFYAMGWSRQAPGKEREMVAAISYSGGSTYYADSVKGRFTISRDNAKNTVYLQMNSLKPEDTAVYYCAAPYYRSTTSYDYWGQGTQVTVSS	high polyreactivity
QVQLVESGGGLVQAGGSLRLSCAASGRTFRFYAMGWYRQAPGKERELVAAISWNGGRTYYADSVKGRFTISRDNAKNTVYLQMNSLKPEDTAFYYCAKDRGGPFYWRYPLGYWGQGTQVTVSS	high polyreactivity
QVQLVESGGGLVQAGGSLRLSCAASGRTFRFYAMGWYRQAPGKERELVAAITYRGGTYYADSVKGRFTISRDNAKNTVYLQMNSLKPEDTAVYYCAVKPSGWSGMDYWGQGTQVTVSS	high polyreactivity
QVQLVESGGGLVQAGGSLRLSCAASGRTFRGNAMGWDRQAPVKERELVAAITWGVGSTYYADSVKGRFTISRDNAKNTVYLQMNSLKPEDTAVYYCATRSYRGRDGFGYWGQGTQVTVSS	high polyreactivity
QVQLVESGGGLVQAGGSLRLSCAASGRTFRGNAMGWNRQTHGKERELVAAISWSGGRTYYADSVKGRFTISRDNAKNSVYLQMNSLKPEDTAVYDCAAVVPKYGQAGYDYWGQGTQVSVSS	high polyreactivity
QVQLVESGGGLVQAGGSLRLSCAASGRTFRGNAMGWYRPAPGKERELVAAITTAGGTYYADSVKGRFTISRDNAKNTVYLQMNSLKPEDTAVYYCAKLSHRGQSTGVDYWGQGTQVTVSS	low polyreactivity
QVQLVESGGGLVQAGGSLRLSCAASGRTFRGNAMGWYRQAPGKERELVAAISRRGVSTYYADSVKGRFTISRDNAKNTVYLQMNSLKPEDTAVYYCAVVVYQGFRSKYYYWGQGTQVTVSS	high polyreactivity
QVQLVESGGGLVQAGGSLRLSCAASGRTFRGNTMGWYRQAPGKERELVAAISRGGSTNYADSVKGRFTISRDNTKNTVYLQMNSLTPEDTAVYYCAKDRYVRWGRTFEFDYWGQGTQVTVSS	low polyreactivity
QVQLVESGGGLVQAGGSLRLSCAASGRTFRGYAMGWYRQAPGKERELVAGITQRGGTTYYADSVKGRFTISRDNAKNTVYLQMNSLKPEDSAVYYCAAAFGRVTKYGYRNQYGYWGHGTQVTVSS	high polyreactivity
QVQLVESGGGLVQAGGSLRLSCAASGRTFRINAMGWYRQAPGKERELVAAINDGGDTYADSVKGRFTISRDNAKNTVYLQMNSLKPEDTAVYYCAVRILTNRWYYGYWGQGTQVTVSS	low polyreactivity
QVQLVESGGGLVQAGGSLRLSCAASGRTFRINAMGWYRQAPGKERELVAAITRGDTNYADSVKGRFTISRDNAKNTVYLQMNSLKPEDTAVYYCNAELSFRYPVFRELDYWGQGTQVTVSS	low polyreactivity
QVQLVESGGGLVQAGGSLRLSCAASGRTFRINAMGWYRQAPGKERELVAAITSGGRTNYADSVKGRFTISRDNAKNTVYLQMNSLKPEDTAVYYCAADTTHWYYLGYGYWGQGTQVTVSS	low polyreactivity
QVQLVESGGGLVQAGGSLRLSCAASGRTFRINAMGWYRQAPGKEREMVAAIRSRAGSTYYADSVKGRFTISRDNAKNTVYLQMYSLKPEDTAVYYCAAKFPFDVDYWGQGTQVTVSS	high polyreactivity
QVQLVESGGGLVQAGGSLRLSCAASGRTFRINTMGWYRQAPGKERELVATITGSGGSTYYADSVKGRFTISRDNANNTVYLQMNSLKPEDTAVYYCAAFGDQNEYDYWGQGTQVTVSS	low polyreactivity
QVQLVESGGGLVQAGGSLRLSCAASGRTFRKNAMGWYRQAPGKERELVAAISDTGGSTYYADSVKGRFTISRDNAKNTVYFQMNSLKTEDTAVYYCAATVRYRGFYYWGQGTQVTVSS	high polyreactivity
QVQLVESGGGLVQAGGSLRLSCAASGRTFRKYAMGWYRQAPGKERELVAAINKSGGTTYYADSVKGRFTISRDNAKNTVYLQMNSLNPEDTAVYYCAADFYYYSYHSGQAPYDYWGQGTQVTVSS	high polyreactivity
QVQLVESGGGLVQAGGSLRLSCAASGRTFRKYAMGWYRQAPGKERELVAAITTSGARTYYADSVKGRFTISRDNAKNTVYLQMNSLKPEDTAVYYCNAVIPYYGIEFDYWGQGTQVTVSS	high polyreactivity
QVQLVESGGGLVQAGGSLRLSCAASGRTFRLYAMGWYIQAPGKERELVAAISSTGSTYYADSVKGRFTISLDNAKNTVYLQMNSLKPEDTAVYYCNAKLPVTSLKFDYYYWGQGSQVTVSS	high polyreactivity
QVQLVESGGGLVQAGGSLRLSCAASGRTFRLYAMGWYRQAPGKERELVAAIDGNGGSTYYADSVKGRFTISRDNAKNTVYLQMNSLKPEDTAVYYCAVSVSVYLDYRRDHQRGYDYWGQGTQVTVSS	low polyreactivity
QVQLVESGGGLVQAGGSLRLSCAASGRTFRLYAMGWYRQAPGKERELVAAISWRGGSTYYADSVKGRFTISRDNAKNTVYLQMNSLKPEDTAVYYCAAGTSRHLSNGYYYWGQGTQVTVSS	high polyreactivity
QVQLVESGGGLVQAGGSLRLSCAASGRTFRLYAMGWYRQAPGKERELVAAITRGGRTNYADSVKGRFTISRDNAKNTVYLQMNSLKPEDTAVYYCATDLVGAGVKGVRFVGRYRGDYWGQGTQVTVSS	low polyreactivity
QVQLVESGGGLVQAGGSLRLSCAASGRTFRLYAMGWYRQAPGKERQLVAAIDGNGGSTYYADSVKGRFTISRDNAKNTVYLQMNSLKPEDTAVYYCAVSVSVYLDYRRDHQRGYDYWGQGTQVTVSS	low polyreactivity

Sequence	polyreactivity (PSR sort gate)
QVQLVESGGGLVQAGGSLRLSCAASGRTFRNNAMGWYRQAPGKEREFVAVISNTGGSTYYADSVKGRFTISRDNAKNTVYLQMNSLKPEDTAVYYCAVRPRYSQYYYWGQGTQVTVSS	high polyreactivity
QVQLVESGGGLVQAGGSLRLSCAASGRTFRNNAMGWYRQAPGKERELVAAISSRGGSTYYADSVKGRFTISRDNAKNTVYLQMNSLKPEDTAVYYCADDHSRYGDYWGQGTQVTVSS	high polyreactivity
QVQLVESGGGLVQAGGSLRLSCAASGRTFRNYAMGWYRQAPAKERELVAAITWSGGSTYYADSVKGRFTISRDNSKNTVYLQMYSLKPEDTAVYYCNVRSYTRTYNYWGQGTQVTVSS	high polyreactivity
QVQLVESGGGLVQAGGSLRLSCAASGRTFRNYAMGWYRQAPGKERELVAGITYSGGSTFYADSVKGRFTISRDNAKNTVYLQMNSLKPEDAAVYYCAAVYVPYYWLGRSRGLDYWGQGTQVTVSS	high polyreactivity
QVQLVESGGGLVQAGGSLRLSCAASGRTFRPNAMGWYRQAPGKERELVAAISRRGGSTNYADSVKGRFTISRDNAKNTVYLQMNSLKPEDTAVYYCNSRGRRGYDYWGQGTQVTVSS	high polyreactivity
QVQLVESGGGLVQAGGSLRLSCAASGRTFRRNAMGWYRQAPGKERELVASINRGGGTNYADSVKGRFTISRDNAKNTVYLQMNSLKPEDTAVYYCAAGPGTYWGYDYWGQGTQVTVSS	low polyreactivity
QVQLVESGGGLVQAGGSLRLSCAASGRTFRRNAMGWYRQAPGQERELVAGIRKRGGSTYYADSVKGRFTISRDNAKNTVYLQMNSLKPQDTAVYYCAAQPALTYRFYYWGQGTQVTVSS	high polyreactivity
QVQLVESGGGLVQAGGSLRLSCAASGRTFRRYAMGWYRQAPGKERELVAAISGDGSTHYADSVKGRFTISRDNAKNTVYLQMNSLKPEDTAVYYCAADYTDWYYVNYPAAPYRYDYWGQGTQVTVSS	high polyreactivity
QVQLVESGGGLVQAGGSLRLSCAASGRTFRRYAMGWYRQAPGKERELVAAISSSTGRTYYADSVKGRFTISRDTAKNTVYLQMNSLKPEDTAVYYCNAVHRYERDYWGQGTQVTVSS	high polyreactivity
QVQLVESGGGLVQAGGSLRLSCAASGRTFRRYVMGWYRQAPGKERELGAAITGSGGSTYYADSVKGRFTISRDNAKNTVYLQMNSLKPEDTAVYYCAADGICFYRSYGYDYWGQGTQVNVSS	high polyreactivity
QVQLVESGGGLVQAGGSLRLSCAASGRTFRRYVMGWYRQAPGKERELVASITRGTGTDYADSVKGRFTISRDNAKNTVYLQMNSLKPEDTAVYYCNAEVKGFFYDYDYWGQGTQVTVSS	low polyreactivity
QVQLVESGGGLVQAGGSLRLSCAASGRTFRSNAMGWYRQAPGKEREFVAAISGRGGITYYADSVKGRFTISRDNAKNTVYLQMNSLKPEDTAVYYCNADYWQAGDYLYYFVYYGGYDYWGQGTQVTVSS	low polyreactivity
QVQLVESGGGLVQAGGSLRLSCAASGRTFRSNAMGWYRQAPGKERELVAAITASGGNTYYADSVKGRFTISRDNAKNTVYLQMNSLKPEDTAVYYCAAVSRYNYGTNPYYYWGQGTQVNVSS	high polyreactivity
QVQLVESGGGLVQAGGSLRLSCAASGRTFRSNAMGWYRQAPGKERELVATISGRGGSTYYADSVKGRFTISRDNAKNTVYLQMNSLKPEDTAVYYCNAYSVRLSGAELNYWGQGTQVTVSS	high polyreactivity
QVQLVESGGGLVQAGGSLRLSCAASGRTFRSNAMGWYRQAPGKERELVATISRRGVSTYYADSVKGRFTISRDNAKNTVYLLMNSLKPEYTAVYYCTLNVGTTSRWSYDYWGQGNQVTVSS	high polyreactivity
QVQLVESGGGLVQAGGSLRLSCAASGRTFRSYAMGWYRQAPGKERELVAAINTNGGSTYYADSVKGRFTISRDNAKNTVYLQMNSLKPEDTAVYYCRAWAQNQFNYWGQGTQVTVSS	high polyreactivity
QVQLVESGGGLVQAGGSLRLSCAASGRTFRSYAMGWYRQAPGKERELVAAISWTGGSTYYADSVKGRFTISRDNAKNTVYLQMNSLKPEDTAVYYCAVRYRGYGYDWGQGTQVTVSS	high polyreactivity
QVQLVESGGGLVQAGGSLRLSCAASGRTFRTNAMGWYRQAPGKEPELVAAISRGGGSTYYADSVKGRFTISRDNAKNTVYLQMNSLKPEDTAVYDCNALRNGIAFGAMDYWGQGTQVNVSS	high polyreactivity
QVQLVESGGGLVQAGGSLRLSCAASGRTFRTYAMGWYRQAPGKERELVAVITVNSASTYYADSVKGRFTISRDYAKNTVYLQMKSLKPEDTAVYYCADYFIYGYWGQGTQVTVSS	low polyreactivity
QVQLVESGGGLVQAGGSLRLSCAASGRTFRTYTMGWYRQAPGKEREFVAAITSSGASTYYADSVKGRFTISRDNAKNTVYLQKNSLKPEDTAFYYCAARYGRRLVWVPALLYDYWGQGTQVTVSS	high polyreactivity
QVQLVESGGGLVQAGGSLRLSCAASGRTFRTYTMGWYRQAPGKERELVAAITSTGSTYYADSVKGRFTISRDNAKNTVYLQMNSLKPEDTAVYYCAAVYVAVGLVYEKYDYWGQGTQVTVSS	high polyreactivity
